Measured values reported in patent US20190031751A1 (University of Texas, published 2019).

T1: Human epidermal growth factor (EGF)-like domain multiple 6 (EGFL6) protein (human, UniProt Q8IUX8 22-553)
T1 construct: Secreted protein; also called human EGFL6; recombinant human EGFL6
T1 sequence (looked up): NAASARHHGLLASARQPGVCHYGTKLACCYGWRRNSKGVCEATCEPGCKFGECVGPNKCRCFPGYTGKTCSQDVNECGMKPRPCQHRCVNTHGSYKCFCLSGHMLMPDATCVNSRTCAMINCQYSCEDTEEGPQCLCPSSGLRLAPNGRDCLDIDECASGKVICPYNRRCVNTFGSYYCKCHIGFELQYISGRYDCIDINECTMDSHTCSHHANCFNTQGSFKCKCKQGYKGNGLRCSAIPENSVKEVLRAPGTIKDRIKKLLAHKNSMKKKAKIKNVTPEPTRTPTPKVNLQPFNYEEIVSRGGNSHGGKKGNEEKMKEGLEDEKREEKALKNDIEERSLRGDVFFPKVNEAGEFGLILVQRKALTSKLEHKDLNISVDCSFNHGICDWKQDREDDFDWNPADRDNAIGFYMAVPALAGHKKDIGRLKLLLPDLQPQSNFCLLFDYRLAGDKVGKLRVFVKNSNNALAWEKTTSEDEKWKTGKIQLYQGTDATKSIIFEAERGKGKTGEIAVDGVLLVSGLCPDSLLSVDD

B1: E1-142 monoclonal antibody (antibody, V domains shown)
VH: QSLEESGGDLVKPGASLTLTCTASGFTINNYNINWVRQAPGKGLEWIARIWNGDGSTYYASWAKGRFTISKTSSTTVTLQMTSLTAADTATYFCARNFNLWGPGTLVTISS
VL: ELVLTQTPSPVSAAVGGTVTINCQSSASVYSNNYLSWFQQKPGQPPKPLIYYASTLASGVPSRFKGSGSGTQFTLTISDVQCDDAATYYCAGDYSSSSDMCIFGGGTELEIK
notes: Rabbit variable domains
B2: E1-38 monoclonal antibody (antibody, V domains shown)
VH: EQSVKESGGDLVKPEGSLTLTCTASGFSFNSGYWVCWVRQAPGKGLEWIACIYTSSPTGAIYYATWAKGRFTISQTSSTTVTLQMTSLTAADTATYFCTRDNFGGGGSASKLWGPGTLVTISS
VL: ELVMTQTPSSKSVPVGGTVTIDCQASESVYSNNRCAWYQQKPGQPPKLLIYYASTLASGVPSRFKCSGSGTRFTLTISGVQCEDAATYYCAGYKTADSDGLGFGGGTEVEIK
notes: Rabbit variable domains
B3: E1-34 monoclonal antibody (antibody, V domains shown)
VH: EQSVKESGGGLVQPEGSLTLTCTASGFSFSSIYWICWVRQAPGKGLELIACIQITSGITYYASWAKGRFTISKMSSTTVTLQMTSLTVADTATYFCGRRGYGAYAGTGASDLWGPGTLVTVSS
VL: ELDLTQTASSVSAAVGGTVTINCQSSQSVYNNNNLAWYQQKPGQPPKLLIYEASKLASGVPSRFKGSGSGTQFTLTISGVQCDDAATYYCAGGYAGYIWAFGGGTEVVVK
notes: Rabbit variable domains
B4: E2-135 monoclonal antibody (antibody, V domains shown)
VH: QSVKESEGDLVKPGASLTLTCKASGFDFSSSYFMCWVRQAPGRGLEWIACIYTVISRKTYYASWAKGRFTISKTSATTVDLQMTSLTAADTATYFCARSATIERLDLWGQGTLVTVSS
VL: ELDLTQTPSPVSAPVGGTVTINCQASESVYNNYRLSWYQQKPGQPPKLLIYAASTLASGVPSRFKGSGSGTQFTLAISDVVCDDAATYYCVGYKSGYIDSIPFGGGTEVVVK
notes: Rabbit variable domains; also called mAb135
B5: E2-93 monoclonal antibody (antibody, V domains shown)
VH: QSVKESEGGLVQPEGSLTLTCKASGFSFSSYGVNWVRQAPGKGLEWIAYIGLSSEITYYAGWAKGRFTISKPSSTTVTLQMTSLTAADTATYFCVRDLYHSNGLWGPGTLVTISS
VL: ELDLTQTPSPVSAAVGGTVTVSCQASESVYNNNRLSWYQQKPGQPPKLLIYYASTLASGVPSRFSGSGSGTQFTLTISSVQCADAATYYCVAFKGYGTDGNAFGGGTEVEIK
notes: Rabbit variable domains; also called Mab #93; mAb93

biological target: T1, Human epidermal growth factor …; assay: ELISA titration on coated EGFL6, 4-parameter curve fit
Method: Binding of EGFL6 by monoclonal antibodies was first screened by ELISA using supernatants collected from the B cell cultures (FIG. 2). ELISA titration was used to determine the binding affinity of a panel of monoclonal antibodies to EGFL6 antigen (FIG. 3). Binding constants (KD and/or EC 50) of a panel of monoclonal antibodies were estimated using the 4 parameter curve fitting with Prism GraphPad program. For Biacore analysis, all experiments were performed at 25° C. at a flow rate of 45 μl/min. An anti-human IgG Fc antibody (from ThermoFisher, at 50 μg/ml each in acetate buffer, pH 5.0) was immobilized onto a carboxymethyl dextran sensorchip (CMS) using amine coupling procedures based on instruction from the manufacturer. Purified rabbit/human chimeric antibody to be tested was diluted at a concentration of 5 μg/ml in 0.5% P20, HBS-EP buffer and injected on FC2 to reach 500 to 1000 RU. FC1 was used as the reference cell. Specific signals correspond to the difference of signals obtained on FC2 versus FC1. The analyte (recombinant human EGFL6, apparent molecular weight 60 kDa on SDS-PAGE gel) was injected during 90 sec at series of concentration dilutions (100, 50, 25, 12.5, 6.25, and 3.13, 1.56 nM) in 0.5% P20, HBS-EP buffer. These concentrations were prepared from stock solution in 0.5% P20, HBS-EP. The dissociation phase of the analyte was monitored over a 30 minutes period. Running buffer was also injected under the same conditions as a double reference. After each running cycle, both flow cells were regenerated by injecting 20 to 45 μl of Glycine-HCl buffer pH 1.5. Binding KD on EGFL6 was calculated by koff/kₒₙ kinetic rate for each EGFL6 monoclonal antibodies (Table 3).

Row | EC50 [ng/mL] | Binder
1 | 1.91 | B1
2 | 5.81 | B2
3 | 0.78 | B3
4 | 0.44 | B4
5 | 0.37 | B5
